In IntAct's records for PubMed 24076653:

B1: BAR/IMD domain-containing adapter protein 2 (Homo sapiens), Q9UQB8-4 (parent)
chain: MSLSRSEEMHRLTENVYKTIMEQFNPSLRNFIAMGKNYEKALAGVTYAAKGYFDALVKMGELASESQGSKELGDVLFQMAEVHRQIQNQLEEMLKSFHNELLTQLEQKVELDSRYLSAALKKYQTEQRSKGDALDKCQAELKKLRKKSQGSKNPQKYSDKELQYIDAISNKQGELENYVSDGYKTALTEERRRFCFLVEKQCAVAKNSAAYHSKGKELLAQKLPLWQQACADPSKIPERAVQLMQQVASNGATLPSALSASKSNLVISDPIPGAKPLPVPPELAPFVGRMSAQESTPIMNGVTGPDGEDYSPWADRKAAQPKSLSPPQSQSKLSDSYSNTLPVRKSVTPKNSYATTENKTLPRSSSMAAGLERNGRMRVKAIFSHAAGDNSTLLSFKEGDLITLLVPEARDGWHYGESEKTKMRGWFPFSYTRVLDSDGSDRLHMSLQQGKSSSTGNLLDKDDLAIPPPDYGAASRAFPAQTASGFKQRPYSVAVPAFSQGLDDYGARSMSSGSGTLVSTV

Variants of: B1
Conditions: with vasp_human VASP

Row | Variant | effect of a mutation on the interaction
1 | W413G | disrupting interaction
